In the NTF2 design screens of Basanta et al. (2020):

Assay: protease stability score; higher = more stable; yeast display proteolysis, trypsin and chymotrypsin;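 also: relative to predicted unfolded state with 0 unfolded-like and 1 meaning tenfold more protease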

For “SEHEEHIHKLMREWIEALLTGDEEHIEHLVDPHDRLNIDGRHYHGRENATKALHQKREQIRIEHIRVDDVKFYGDKVHVEMTVHGNINGKRIEIDTRFIIVVIDGVLRSFEFRHK”, the protease stability score was 0.122.
With “SEHEEHIKHLAEEWIRLVLTGNEEIIDHLFDPNVRVEIDGREMIGREKMNEWMRHVLRHWRTHIVIRRMTAIGDKAHSDGELILHVGDKTIRTKVHFHLVIIDGRIHEVSVDIR” the protease stability score was 1.58.
Sequence “SEHEEHIKRHIEHVIHHWMTGNWEELLRLMDPNVRLILHIGDKEIHSIGMEEILRRLHEYKKKIKNATIHIDHIDMQGDKTTIHETIHIGDYVYDTRIILVIVNGRIKRIEYQVH” has a protease stability score of 0.128.
“SEHEEHLKHISELMVKLFLTGDEELINHLADPDTRLNINGVHFIGREHAVKASKDFWDELGVNHIEIEDRKVINGRVTMTGHVHVGDKYRRTQNYLVVVNGRLKNVEWRID” showed a protease stability score of 0.806.
With “SEHEEHVRSAIERLSHAWRTGNEELFKELVDPHTRFIYGNKNMHGWEISEFFRRRVKGMTLHEVDIHHVEVINGRVHVNSILRGEINGKDTFEDHELHARKVDGRWVVTEMTIR” the protease stability score was 0.732.
Sequence “SEHEEIMHKALLFLIYVLLTGDEEILHELLDPNARLDVNGREKHGREDWVQLKRELIHKIKNVRIELHDMKVIGDFLISDQRHDYDGREYKMDVFAFKVDGQWKVREEKLD” has a protease stability score of 1.44.
“SEHEEKSKEASEQMFQILRTGDWHKWLELLDPHYQLEIGDKRFHGMEISSELLRHLLEELGVERVEVYVKHQETQGDKVINDGSVDINGRELRMILYARKVDGRWVLKSMKVK” showed a protease stability score of 1.39.
For “SEHEELLERIAEFVMKSWITGNEELDERLADPDARSIVNGKHLHGRELHSEFLRKLLEQLRIHHIHMTDRRVFDGRAIEHSVVHGEIDGVKVTVEVHIRVVVINGRLKSLRIEIR”, the protease stability score was 0.149.
Work on “SEHEEMEQDAREIMERVFHTGDETTMRKLADPHVKFHIGDKLHVGRELFDNFVRYVLEKFKNIRVETEEVRDVNGVVIQDLDENYNGQRYKVRWVMVKINGKWTIERVEIR” yielded a protease stability score of 0.599.
“SEHEERMRRYIEIFIHNLITGDEHMINRMADPSTIVIINGVRLWGREEFSKWVRRERERIDHIEMRIEHLDVQGDKATVDVRVEEHVGDKSEERSLIIRLIVVNGRSHSMHFEVR” gave a protease stability score of 1.59.
“SEHEEVASRVTTEIIHNLLTGDWQRTTELMDPNTKLDVNGQHHHGWELYHKVLREWHEELRVHDMKEHDLKVIDGVAFSNMRVDIEINGVRFETEIRIIVVVVNGRIKSISFESK” gave a protease stability score of 0.771.
“SEHEEYNRELSELFWHWFQTGDEEMMNKNVDPDARMIVGEKTHHGWEEFVKLLRETLKRLGADHIILRRMNVQGNKSHIDGEIRINGVTIKTELDLVVVDGRISSLRLSFH” gave a protease stability score of 1.05.
“SEHEHELIEFAELFREIIATGDEDALRRLLDPNTQWDFNGVDLHGRDEVIKELRRWRDRFPNMRVHIRRIRLEVINGRLQLDLHTFVEFDGVEFVQHIHLHIEKVNGRWSVHHIEVRYR” showed a protease stability score of 1.1.
For “SEHEHIAEKMSELLREIVETGDFEQLERLADPHVKLNVDGRNFHGMERFRELKERIRREFGVDHIHVEVERVEVIDGVVINHTKLIIEQGDKRRESRTTLIINKVNGQWRLDSVRVE”, the protease stability score was 0.488.
Sequence “SEHEHMIQVALELWLHTLHTGDEHKEERLHDPHARLRIGDKELHGREDVIRWMRKVKNVTINRVEVRRINFQGDKAILLVRIDGEFDGRRIDTEVIIIVVKVDGRWLFESMEID” has a protease stability score of 1.31.
Sequence “SEHEHSSRIAIELLLKTLKTGDERKIEENFDPNVRLIFEGRHIVGREEVFQHIHHLAHELRIEDMKIRRVEHVNGRIHIDLHVVIEINGQRIETDSHMVILKIDGKWKIELLEWR” has a protease stability score of 1.61.
For “SEHEKFSEKYFQIWVRAVRTGDEDTLRELIDPDDRLDVNGQNFHGWEQVNEHLLHFIRKIKNVRIEVHLEHHEVQGDKIHLDMTLHLNVDGRETRHKTEIIARKIDGRWVFTEFRIK”, the protease stability score was 2.26.
“SEHEKHNRDVVRIVLHALLTGDEELFEENADPNVRTEIDVNGKEIQIHGRSKWVEWLRREIERFDHVRIDLKRIDVQGDKLHTDGHLRLKQGDKEITTDVRLHIVVVDGRIDSMEMSVH” showed a protease stability score of 2.1.
“SEHEKIIVEWTRLLQEILRTGDEEMWLKLLDPHAKTHINGKDIHGMEEAARFWKELHKHMRIEDEEVRETRVVGNKAIYHMERKVNINGRTHEQEVELRVIIVDGQIKKISIHIH” showed a protease stability score of 0.439.
Work on “SEHEKMMREIAKEYIDWFLTGDEELERNLADPDTRLNVDGREHHGMEEVIDLWRRIGLSNVDLRIHHWRAYGEFVYFDGEYTVGDKKRKVHFEYFVVNGRLKEVRVEIR” yielded a protease stability score of 1.51.
Sequence “SEHEKVYHDAIKIYQDNLKTGDEKRMEKFFDPNVIIHIGDKELVGRELVRHQATELARRVDHVEVHIKHVDVQGEKIRINGEIEIEINGRTIRFETHLVILKVNGRWIIHSEFIL” has a protease stability score of 1.04.
With “SEHELIAHEIVERWVHDVNTGDWENLHRLFDPNTKIDFNGVHLHGRRSLEEWIHEHLRRADHFEVRIKDIRVQGEKSVANTHVNVNINGQEYRRDTSLILIIVDGKVKTMTIRVH” the protease stability score was 1.5.
Work on “SEHEREAREHMEIFRRAFRTGDEQFLTELADPNVRVDVNGVELHGRENFLRVMRHIRFKDIRIKRSREINGVLFIDVRERGIVNGQETTFESEIIILKVDGRWIIEELIIL” yielded a protease stability score of 1.39.
Work on “SEHETEVMRLAEITVKSFLTGDEDTMHHLLDPHVRSDVNGRHHIGRERWLKVVEDMLRHLRLTTIEIHHVDAINGRLHTDTRVNVHINGQEVILETELIIVIVDGVVKEVHWVVK” yielded a protease stability score of 0.994.
Work on “SEHFEIALEILKLFLRSRHTGDWKTMEEMADPDVRLEVGEYTNHGWEEILRVLEELRFEIHFIHDHDVKFQGDKLHLDGHVDGVRRVDGQEVRIVSHIEIISVVVNGRAKSYSEHWV” yielded a protease stability score of 0.631.
“SEHHEEATEATKHFVHLMRTGDFDRLLELADPHVRVRINGKNLIGREDLDKLWKELGLTNVDVRIDDFSHQGDKVEIHTREHFNGRTVDVIVILEKINGQWVIKRREQR” gave a protease stability score of 0.4.
“SEHHEKLLHLTTLFLEAFWTGDEDIFHHLLDPNVKSIFNGREIHGRHIFSDLRRQIRVERTHVEHEQIVDGRVFMHGKSDGHINGRTHKSHLEIEIVVFDGKVERIKIELR” showed a protease stability score of 0.499.
“SEHHEVTEKLTRIILHQWDTGNERSLRKMMDPNARVEIEIGDKSWEYHGRENFRHAVERFDYLDNKEHKDERIVGDFSIIDGRVDGVQGDKRYDTNVEIIIIIVNGRIRAIRFIVR” showed a protease stability score of 1.26.
Sequence “SEHHKEAREMVEELIRLYETGDEDTLRTLADPHVRQDINGVDYVGREFAADLLIDEMREIRSHIHVHRIHTYNGQVHVDGHLEFIIGDKSYRLRVHMVVEKVDGKWLHRSEHYK” has a protease stability score of -0.116.
“SEHHKLLEDFLHLMQEALHTGNEDFIAELADPNVRINWNGKETHGRENLRRMLHEWRERWGIDRIEFHMKSISVQGDKIDLEMQVHINGRHETMHVRITVINGRLKDVRYELR” showed a protease stability score of 1.66.
In the case of “SEHHKLLVEIAHLWIRNVLTGDEDRLKEMADPNVRIHINGVDIHGMEDFVRHVHERLKEIWIRIEIKRMVPYDGRAEVDGTMHVIVNGQKLSRRVHYDIIIVDGVLQEQHVHVE”, the protease stability score is reported as 1.64.
Work on “SEHKEEIIQLAEEIFRKIVTGDWERFWELADPHVRFDVGDKTRHGREKVIEYINRFMKELRFERFHIDDIRVIDGVVVIHTKLRFRVGDFQLHHHTRHEIMMVDGRIQFLRIEWE” yielded a protease stability score of 0.096.
Sequence “SEHKEEVHEMIKLFLEALRTGDEDWLKTMIDPNDRIRVGDKELHGREEFDKIVHFFKNARIHLHHYSVINGRVTIHMILHFNGKTFEIHIYAEKVDGRWRHRESEMHER” has a protease stability score of 1.38.
In the case of “SEHKELVEHITKLSWELLKTGDEEILLHLADPDMKVEVGDKEMHGREEWARFLIETLRRVKNLRVDLHRVHIQGEKAHVDGTIFIDGVEFTDQLNFVVINGRIKHINIIDR”, the protease stability score is reported as 1.46.
“SEHLEIAMRVIREDLIKSSTGDWRRLEDYLDPHVKIQVGNKEIVGWEEVEKNMEHLRIEFRDYRIKDARNIDGKINVHGEIVEIIRVGNKTYQMRTEVDFIATKVDGQWTIHSIRFN” gave a protease stability score of 1.15.
For “SEHQEVFEEFVRRWIEDMETGNEEQLRHLADPDARIVINGREHHGREWVSTFLMKRIRHLGVKHVEIDDKKQIGEKIHVRVTIHFDGVTVDTELIALKINGRWFMHEVIFR”, the protease stability score was 1.5.
“SEHSHFLVELALIFWKALVTGDEERLDRLIDPNTRLEIGDKEEIGRENIIRKLDHIRIKTEEITVRDYRTQGDKFHMIGHVDLHFDFNGVRHRFTTEVRVDLTTVDGKIHSHHIKYR” showed a protease stability score of 0.145.
Sequence “SEHTHAAVRIMELESEYLTTGDWESVRRLLDPHVQVEIGDFHAHGWEERVRRMREIRVKVQDLRIRTIDFYNGRVELHFELHVRIEFNGRDVRQDTEIVLIVLKVNGKWLVDKIRFE” has a protease stability score of 0.901.
Work on “SEIDEEIEKHFELYTHALHTGDEHVLRRLLDPDARLTVGDKTFHGREQVVKELSREIHELRVRDMEIKDEKLVGDKLHQDTRLQFKFNGKEHEIITNFIWLKVNGQWVIREVRYD” yielded a protease stability score of 1.25.
In the case of “SEIDEFSEKAFRLLLETLQTGDWRLTSELVDPNVRVHFEGHEHVGMEEVSKVVRHWRVKRIELKHLEVIGEKMHMILHQDIEVNGQRVRTDMIVTADKIDGVWLLTEVRIK”, the protease stability score is reported as 1.59.
Work on “SEIDEIAHKMAKEWTKDFVTGDEDHWKRLADPNTRVHINGVELHGRETSSEFKEKLRRHMGVDHMELRVRHVDLFNGRVHMETELIYRVGDKEIRTETHVDLDIVNGRIKEVRYEIR” yielded a protease stability score of 0.734.
“SEIDEWLHRWFNLWIDAFITGDEDFLKELADPDVRLVDGDFEKVGREEFTRSMRQYLRHARVDHFRIKHQHMQGDKIHVHGHIEMTINGKHIRHEIRLRFVVINGRFHSMHIEID” showed a protease stability score of 0.975.
In the case of “SEIDHILKLLAELWIRLWLTGDEEIIEELADPNVRLDINGKDAHGWERLSEVLRLEIKEMRIDHHRLREIRVQGNKSEVDGRLRGTFNGKHREVDVHIEIEVVNGRFKRIRIEFR”, the protease stability score is reported as 1.42.
With “SEIDHIVKELIRRESEYLKTGDEDAFHDLFDPSTRIEINGQEFHGREWHKHLLKELRFHSIELHDWRIVGDKVEMDTRMLTEVGDKRDYRRTTMHATKFDGKWYLTRVIIE” the protease stability score was 1.24.
Sequence “SEIDKESEEVARRLLHMEYTGDEEKMIKLLDPHVRLDINGQLFVGREEAERALRQYWHRVDHIHSIEIHDYKTQGDWFHLDIRVDGEIDGQRRDFRVIVHTRIVNGKVKEMHLKFH” has a protease stability score of 1.65.
For “SEIDKHAEDVMRIWEHVHRTGNEDTLSHLLDPDVKVEIHYDGVDIRLHGMELVSEFLTRFAHHARNKDFKEKDLELQGNKIIRTGIVVFDYDGVEIRRWTHEEIRVVNGRFTHIKKEFH”, the protease stability score was 0.442.
Work on “SEIDREAEELVHLLAEFVETGNEERWLELLDPHVRLDFDGVISHGREHYIEFWRRLKENLGIDKVSFRVRRRKTQGEKAHSDMETDINGQKYHMEVLVVVINGVVKHSEFHYN” yielded a protease stability score of 1.07.
In the case of “SEIDREHHELLTLLVHLWLTGDWKTFKKYFDPNVRLHQGDFDDHGWEALEETERKHGIEIKDLELHEFHVQGEKIIINLHVVIRQGDKTYRKDMRITYVVVNGRVTSIRMEVR”, the protease stability score is reported as 0.877.
“SEIDRLSEELARLFLELVITGDFKTLSHLADPTVKSDINGVDLHGREELYRWVEEFYNELRVSWVLDSIEVQGEKAYVKGKLESRVDGQRHTDQYEIILIIVNGRFKEIIVKRR” showed a protease stability score of 1.5.
Work on “SEIEEDSRKASRDLMNSIRTGNEEVLKEMADPHVRTDINGREIHGMEKWLNELSEFLEKFKGAKIDLSLKDIRIQGEYIHIHMHVHLRFNGKSDNKDIEIIALKVDGRWLIQEWRIR” yielded a protease stability score of 0.834.
